The supplement of paper PMC9170038

Tested on: MS2 coat protein
Assay: apparent KD of MS2 coat protein; designed switch direction (-1 OFF switch, 1 ON switch): 1; higher = weaker reporter binding
Method in brief: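 The reported apparent KD is a per-design median over clusters, from curve fits of normalised cluster fluorescence. Protein titrations used SNAP-549-labelled MS2 coat protein, doubled from 0.7 or 1.5 nM to 3 µM, in Tris-HCl pH 7.5 buffer with KCl, MgCl2, BSA, DTT, tRNA and Tween-20, with no input, 200 uM small-molecule ligand, or an oligonucleotide input. The RNA switches were transcribed on Illumina chips by stalled E. coli RNA polymerase.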

[1] = input ligand: microRNA oligo, concentration not stated
[2] = Eterna round: R95, input ligand: FMN 200 uM
[3] = Eterna round: R95, input ligand: microRNA oligo, concentration not stated
[4] = Eterna round: R95, input ligand: none

UGGCUGAGUCGAGGAUAUUAUGGAUCCUCUAAUACAUGAGGAUCACCCAUGUAAUUAAUUAUACAUGAGAAGGUGACUCAGCCA [SSNG2/12-B2] (Eterna round: R96, puzzle: Same State NG 2)
apparent KD of MS2 coat protein (input ligand: FMN 200 uM): 463 nM | apparent KD of MS2 coat protein [1]: 52.3 nM | apparent KD of MS2 coat protein (input ligand: none): 342 nM

UGGCUGGUGAUAGGAUAUACAUGAGGAAUCCUCGUAGAAGGAUCACGACAUGAGGAUCACCCAUGUAGCCGUCCGUAGACGGCU [salish99_SSNG1_r04_005] (Eterna round: R96, puzzle: Same State NG 1)
apparent KD of MS2 coat protein (input ligand: FMN 200 uM): 493 nM | apparent KD of MS2 coat protein [1]: 198 nM | apparent KD of MS2 coat protein (input ligand: none): 551 nM

UGGCUGGUGCUAGGAUAUCCAUGAGGAAUCCUCGUAGAAGGAGCACGACAUGAGGAUCACCCAUGUAGCCGUCCGUAGACGGCU [salish99_SSNG1_r04_008] (Eterna round: R96, puzzle: Same State NG 1)
apparent KD of MS2 coat protein (input ligand: FMN 200 uM): 287 nM | apparent KD of MS2 coat protein [1]: 185 nM | apparent KD of MS2 coat protein (input ligand: none): 240 nM

UGGCUGGUGCUAGGAUAUGCAUGAGGCCUCCUCGUAGAAGGAGCACGACAUGAGGAUCACCCAUGUAGCCGUCCGUAGACGGCU [salish99_SSNG1_r04_011] (Eterna round: R96, puzzle: Same State NG 1)
apparent KD of MS2 coat protein (input ligand: FMN 200 uM): 62.7 nM | apparent KD of MS2 coat protein [1]: 50.1 nM | apparent KD of MS2 coat protein (input ligand: none): 63.3 nM

UGGUAACAUGAGGAUCACCCAUGUCAAAUGAAUCAAGGAUAUGGGAAAGGAGAAGAGAAACCAGAAGGUGAGGUUG [Altered State 1-15 - Jieux - Same State 1] (puzzle: Same State 1)
apparent KD of MS2 coat protein [2]: 108 nM | apparent KD of MS2 coat protein [3]: 205 nM | apparent KD of MS2 coat protein [4]: 167 nM

UGGUAACAUGAGGAUCACCCAUGUCAAGAGAAUCAAGGAUAUGGUAAGUAAUAAGAGAAUCUAGAAGGUGAAGUUG [Altered State 1-25 - Jieux - Same State 1] (puzzle: Same State 1)
apparent KD of MS2 coat protein [3]: 73.3 nM

UGGUACAUGGGAGGAUAUCUCAUGGAGACAUGAGGAUCACCCAUGUAGUUGGGCCGGAAACGGUGAGAGAAGGCCCAUGUACCU [JL SSNG1 3.71] (Eterna round: R96, puzzle: Same State NG 2)
apparent KD of MS2 coat protein (input ligand: FMN 200 uM): 377 nM | apparent KD of MS2 coat protein [1]: 338 nM | apparent KD of MS2 coat protein (input ligand: none): 473 nM

UGGUACAUGGGAGGAUAUGGAGUGAAGACAUGAGGAUCACCCAUGUUAUAAAUGCCGAGAGGCAACUAGAAGGCCCAUGUACCU [JL SSNG1 3.94] (Eterna round: R96, puzzle: Same State NG 2)
apparent KD of MS2 coat protein [1]: 54.3 nM

UGUACCUUCACAGGAUAUCAUGCGAAAAUUGCGUGAGAAGGGUGAAUACUGUGUUAAUAAAAGCACAUGAGGAUCACCCAUGUA [SameState NG1 #57] (Eterna round: R96, puzzle: Same State NG 1)
apparent KD of MS2 coat protein (input ligand: FMN 200 uM): 392 nM | apparent KD of MS2 coat protein [1]: 12.7 nM | apparent KD of MS2 coat protein (input ligand: none): 43.4 nM

UGUCCAGCCUGAGCUGGACAAAAGCAUGUACAUGAGGAUCACCCAUGUUCAUGUACAAGCUUUUUGCUCGUCUUAGG [salish99_208a_r3_066] (puzzle: Sensor for hsa-mir-208a)
apparent KD of MS2 coat protein [2]: 695 nM | apparent KD of MS2 coat protein [3]: 19.2 nM | apparent KD of MS2 coat protein [4]: 506 nM

UGUCCAGCCUGUGCUGGUCUUUAGCAUGUACAUGAGGAUCACCCAUGUCGUGUACAUGCUUUUUGCUCGUCUUUAAA [Photon Torp-05] (puzzle: Sensor for hsa-mir-208a)
apparent KD of MS2 coat protein [2]: 68.9 nM | apparent KD of MS2 coat protein [3]: 25.9 nM | apparent KD of MS2 coat protein [4]: 92.2 nM

UGUCCAGCCUGUGCUGGUCUUUUGCAUGUACAUGAGGAUCACCCAUGUCGUGUUCAUGCUUUUUGCUCGUCUUUAAA [Photon Torp-02] (puzzle: Sensor for hsa-mir-208a)
apparent KD of MS2 coat protein [2]: 49.7 nM | apparent KD of MS2 coat protein [3]: 17.2 nM | apparent KD of MS2 coat protein [4]: 53.5 nM

UGUUAGUAGACAGGAUAUUGAAUGUUAAGUAUUAACAUGAGGAUCACCCAUGUAUUUGAUUGGUACAAGAAGGGUCAAGUUUGU [JR_SSNG2_Sub013] (Eterna round: R96, puzzle: Same State NG 2)
apparent KD of MS2 coat protein (input ligand: FMN 200 uM): 487 nM | apparent KD of MS2 coat protein [1]: 191 nM | apparent KD of MS2 coat protein (input ligand: none): 320 nM

UGUUAUUAGACAGGAUAUUGAUUGUAAAGUUUUUACAUGAGGAUCACCCAUGUUGUUCAUUCGAACAAGAAGGGUCAAGUUUUU [JR_SSNG2_Sub018] (Eterna round: R96, puzzle: Same State NG 2)
apparent KD of MS2 coat protein (input ligand: FMN 200 uM): 153 nM | apparent KD of MS2 coat protein [1]: 35.9 nM | apparent KD of MS2 coat protein (input ligand: none): 137 nM

UGUUGUAAUACAGGAUAUCUAUUAUUUUUAUUUAGAGAAGGGUAAUCACAUGAGGAUCACCCAUGUAUAUACGAGGAAGAAGAG [JMF's solution 4] (Eterna round: R96, puzzle: Same State NG 1)
apparent KD of MS2 coat protein [1]: 126 nM

UGUUGUAUUACAGGAUAUCUAGAAUUUUUAUUUAGAGAAGGGUAUUCACAUGAGGAUCACCCAUGUAUAUACGAGGAAGUUGUG [JMF's solution 30] (Eterna round: R96, puzzle: Same State NG 1)
apparent KD of MS2 coat protein [1]: 27.9 nM

UGUUGUAUUACAGGAUAUCUAGUAUUUUGAUUUAGAGAAGGGUAUUCACAUGAGGAUCACCCAUGUAUAUACGAGGAAGUUGUG [JMF's solution 44] (Eterna round: R96, puzzle: Same State NG 1)
apparent KD of MS2 coat protein [1]: 44 nM

UGUUGUAUUACAGGAUAUCUAGUAUUUUUAUUGAGAGAAGGGUAUUCACAUGAGGAUCACCCAUGUAUAUACGAGGAAGUUGUG [JMF's solution 55] (Eterna round: R96, puzzle: Same State NG 1)
apparent KD of MS2 coat protein [1]: 34.8 nM

UGUUGUAUUACAGGAUAUCUAUGAUUUAUAUUUAGAGAAGGGUAUUCACAUGAGGAUCACCCAUGUAUAUACGAGGAAGUUGUG [JMF's solution 61] (Eterna round: R96, puzzle: Same State NG 1)
apparent KD of MS2 coat protein [1]: 33.6 nM

UGUUGUAUUACAGGAUAUCUAUGAUUUUUUUUUAGAGAAGGGUAUUCACAUGAGGAUCACCCAUGUAUAUACGAGGAAGUUGUG [JMF's solution 65] (Eterna round: R96, puzzle: Same State NG 1)
apparent KD of MS2 coat protein [1]: 39.8 nM

UGUUGUAUUACAGGAUAUCUAUGGUUUUUAUUUAGAGAAGGGUAUUCACAUGAGGAUCACCCAUGUAUAUACGAGGAAGUUGUG [JMF's solution 58] (Eterna round: R96, puzzle: Same State NG 1)
apparent KD of MS2 coat protein [1]: 41.6 nM

UGUUGUAUUACAGGAUAUCUAUUAGGUUUAUUUAGAGAAGGGUAUUCACAUGAGGAUCACCCAUGUAUAUACGAGGAAGUUGUG [JMF's solution 87] (Eterna round: R96, puzzle: Same State NG 1)
apparent KD of MS2 coat protein [1]: 41.8 nM

UGUUGUAUUACAGGAUAUCUAUUAGUUUUAUUUAGAGAAGGGUAUUCACAUGAGGAUCACCCAUGUAUAUACGAGGAAGUUGUG [JMF's solution 14] (Eterna round: R96, puzzle: Same State NG 1)
apparent KD of MS2 coat protein [1]: 42.2 nM

UGUUGUAUUACAGGAUAUCUAUUAUGUUUAUUUAGAGAAGGGUAUUCACAUGAGGAUCACCCAUGUAUAUACGAGGAAGUUGUG [JMF's solution 16] (Eterna round: R96, puzzle: Same State NG 1)
apparent KD of MS2 coat protein [1]: 37.5 nM

UGUUGUAUUACAGGAUAUCUAUUAUUAUUAUUUAGAGAAGGGUAUUCACAUGAGGAUCACCCAUGUAUAUACGAGGAAGUUGUG [JMF's solution 17] (Eterna round: R96, puzzle: Same State NG 1)
apparent KD of MS2 coat protein [1]: 33.8 nM

UGUUGUAUUACAGGAUAUCUAUUAUUGUUAUUUAGAGAAGGGUAUUCACAUGAGGAUCACCCAUGUAUAUACGAGGAAGUUGUG [JMF's solution 18] (Eterna round: R96, puzzle: Same State NG 1)
apparent KD of MS2 coat protein [1]: 39.9 nM

UGUUGUAUUACAGGAUAUCUAUUAUUUAUAUUUAGAGAAGGGUAUUCACAUGAGGAUCACCCAUGUAUAUACGAGGAAGUUGUG [JMF's solution 19] (Eterna round: R96, puzzle: Same State NG 1)
apparent KD of MS2 coat protein [1]: 36.4 nM

UGUUGUAUUACAGGAUAUCUAUUAUUUUAAUUUAGAGAAGGGUAUUCACAUGAGGAUCACCCAUGUAUAUACGAGGAAGUUGUG [JMF's solution 21] (Eterna round: R96, puzzle: Same State NG 1)
apparent KD of MS2 coat protein [1]: 38.4 nM

UGUUGUAUUACAGGAUAUCUAUUAUUUUUAGUUAGAGAAGGGUAUUCACAUGAGGAUCACCCAUGUAUAUACGAGGAAGUUGUG [JMF's solution 26] (Eterna round: R96, puzzle: Same State NG 1)
apparent KD of MS2 coat protein [1]: 35.7 nM

UGUUGUAUUACAGGAUAUCUAUUAUUUUUAUAUAGAGAAGGGUAUUCACAUGAGGAUCACCCAUGUAUAUACGAGGAAGUUGUG [JMF's solution 28] (Eterna round: R96, puzzle: Same State NG 1)
apparent KD of MS2 coat protein [1]: 29.6 nM

UGUUGUAUUACAGGAUAUCUAUUGUUAUUAUUUAGAGAAGGGUAUUCACAUGAGGAUCACCCAUGUAUAUACGAGGAAGUUGUG [JMF's solution 74] (Eterna round: R96, puzzle: Same State NG 1)
apparent KD of MS2 coat protein [1]: 33 nM

UGUUGUAUUACAGGAUAUCUAUUGUUUUAAUUUAGAGAAGGGUAUUCACAUGAGGAUCACCCAUGUAUAUACGAGGAAGUUGUG [JMF's solution 76] (Eterna round: R96, puzzle: Same State NG 1)
apparent KD of MS2 coat protein [1]: 40.6 nM

UGUUGUAUUACAGGAUAUCUAUUGUUUUUAUUUAGAGAAGGGUAUUCACAUGAGGAUCACCCAUGUAUAUACGAGGAAGUUGUG [JMF's solution 12] (Eterna round: R96, puzzle: Same State NG 1)
apparent KD of MS2 coat protein [1]: 40.6 nM

UGUUGUUAAUUAGGAUAUGGACACAUGAGGAUCACCCAUGUAAUGUCGAUGCUAUGUGGACACGUUCAGAAGGAAUGGCUAACA [SameState NG2 #92] (Eterna round: R96, puzzle: Same State NG 2)
apparent KD of MS2 coat protein (input ligand: FMN 200 uM): 29.7 nM | apparent KD of MS2 coat protein [1]: 53.2 nM | apparent KD of MS2 coat protein (input ligand: none): 58.4 nM
